Reference: US12577571B2, “Mutant DNase1L3 with improved serum half-life” (Texas Tech University System, priority 2019, dated 2026)

Tests used:
plasmid DNA = test: Plasmid DNA degradation by Dnase1L3 (agarose gel); assay type: biochemical; details: increasing dilutions with 200 ng plasmid DNA, 30 min at 37° C., 200 mM Tris pH 7.4, 50 mM MgCl2, 20 mM CaCl2; 1% agarose gel
Excerpt: FIGS. 1A to 1E show the results from the modified Dnase1L3 of the present invention. […] (FIG. 1A) Dnase1L3 was affinity purified with Nickel NTA agarose, then cleaved with Tobacco Etch Virus protease TEV protease. Cleaved Dnase1L3 was further purified by anion exchange and then by size exclusion chromatography. Fractions from the final size exclusion purification were resolved by SDS-PAGE and Coomassie stained. Fractions 7-9 show purified Dnase1L3 at the expected 36 kDa size. Molecular weight in kDa is shown. (FIG. 1B) The indicated amounts of purified Dnase1L3 were resolved by SDS-PAGE, transferred to nitrocellulose and probed with anti-Dnase1L3 primary antibody, anti-rabbit HRP secondary antibody and developed with enhanced chemiluminescence. (FIG. 1C) Recombinant, […] mM Tris pH 7.4, 50 mM MgCl2, 20 mM CaCl2 with or without 100 μM Dnase1L3 inhibitors fmoc-D-cyclohexylalanine (FCA) or Pontacyl Violet 6R (PV). Remaining plasmid DNA resolved on a 1% agarose gel. # indicates non-degraded DNA (i.e. supercoiled, nicked and linear DNA). The absence of DNA indicates degradation. (FIG. 1D) Purified Dnase1L3 was conjugated to PEG. Unconjugated Dnase1L3, PEGylated Dnase1L3 (PEG-D1L3), or free PEG were resolved by SDS-PAGE and visualized with Coomassie Blue. The 36 kDa band has increased in size to 41 kDa, indicating successful PEGylation. Molecular weight in kDa is shown. […]

[1] = test system: DNA present as chromatin or apoptotic bodies; details: background, Sisirak et al 2016, Napirei et al 2009, Wilber et al 2002; cited from earlier work

| Molecule | endonuclease activity (degradation of plasmid DNA) (plasmid DNA) | digestion of DNA present as chromatin or apoptotic bodies [1] |
| --- | --- | --- |
| PEGylated Dnase1L3: Purified Dnase1L3 conjugated to PEG (PEG-maleimide); band shifts from 36 kDa to 41 kDa (conjugate, UniProt Q13609 21-305, looked up, PEG-maleimide conjugate, Purified Dnase1L3 conjugated to PEG (PEG-maleimide); band shifts from 36 kDa to 41 kDa) Deoxyribonuclease gamma: MRICSFNVRSFGESKQEDKNAMDVIVKVIKRCDIILVMEIKDSNNRICPILMEKLNRNSRRGITYNYVISSRLGRNTYKEQYAFLYKEKLVSVKRSYHYHDYQDGDADVFSREPFVVWFQSPHTAVKDFVIIPLHTTPETSVKEIDELVEVYTDVKHRWKAENFIFMGDFNAGCSYVPKKAWKNIRLRTDPRFVWLIGDQEDTTVKKSTNCAYDRIVLRGQEIVSSVVPKSNSVFDFQKAYKLTEEEALDVSDHFPVEFKLQSSRAFTNSKKSVTLRKKTKSKRS | potent endonuclease |  |
| Dnase1: DNase I protein of the background art; poorly digests chromatin DNA (protein, UniProt P24855 23-282, looked up) Deoxyribonuclease-1: LKIAAFNIQTFGETKMSNATLVSYIVQILSRYDIALVQEVRDSHLTAVGKLLDNLNQDAPDTYHYVVSEPLGRNSYKERYLFVYRPDQVSAVDSYYYDDGCEPCGNDTFNREPAIVRFFSRFTEVREFAIVPLHAAPGDAVAEIDALYDVYLDVQEKWGLEDVMLMGDFNAGCSYVRPSQWSSIRLWTSPTFQWLIPDSADTTATPTHCAYDRIVVAGMLLRGAVVPDSALPFNFQAAYGLSDQLAQAISDHYPVEVMLK |  | poorly digests |
